# No end group written: not given here. *: point of attachment. Acm = CC(=O)NC*
# Assays:
# [1] = molecular target: T1, TSP-1 (Homo sapiens, UniProt P07996); experiment: Affinity Sensor System (resonant mirror biosensor): binding to TSP-1 coupled to cuvette; conditions: peptide alone, TSP-1 immobilized in cuvette
# Method: (§1) Binding of undenatured (in the ligand blot protocol above, the receptor is denatured by SDS) recombinant receptor to TSP-1 was evaluated using the Affinity Sensor System, Cambridge, UK. This is an optical binding method that uses a cuvette to which either ligand or receptor is covalently coupled. A laser beam is used to detect bound proteins to the protein-derivatized cuvette surface. This method is highly sensitive and measures both the association and dissociation rate constants for ligand receptor interactions. The instrument assumes that one molecule of receptor binds one molecule of TSP-1 and calculates the dissociation constant (KD) according to the following relationships:
# 1) kass[R][TSP-1]=kdiss[R-TSP-1] at equilibrium, where kass is the second order rate constant for association and kdiss is the first order rate constant for dissociation
# 2) KD=[R][TSP-1]/[R-TSP-1]=kdiss/kass
# 3) [R-TSP-1]t=[R-TSP-1]eq[1-exp(-kont)], where the instrument response measure in arc seconds is proportional to receptor-TSP-1 complex R-TSP-1].
# 4) kon=kass[L]+kdiss where kon is the pseudo-first order rate constant for receptor TSP-1 interaction.
# (§2) About 1 μg of TSP-1 was coupled to the cuvette through its amino groups to COOH groups on the cuvette surface. Unreacted groups on the cuvette surface were then blocked with ethanolamine and albumin. […] A dissociation constant of […] was calculated from a plot of the pseudo first order rate constant for association versus the concentration of the receptor, as shown in FIG. 7. Instrument response vs time readings shown in FIG. 8, where the instrument response is proportional to the concentration of receptor-TSP-1 complex, were used to plot the data points on FIG. 7.
# (§3) […] The peptides used were Val-Cys-His-Ser-Lys-Thr-Arg (SEQ ID NO: 8), Val-Cys(Acm)-His-Ser-Lys-Thr-Arg (SEQ ID NO: 9), and Pro-His-Ser-Arg-Asn (SEQ ID NO: 10). The first two peptides are derived from the binding portion of the receptor, where it interacts with the Cys-Ser-Val-Thr-Cys-Gly (SEQ ID NO: 1) portion of the TSP-1 protein. The third peptide is a control.
# [2] = system: B16-F10 Melanoma Cells; experiment: Cell adhesion to immobilized receptor peptides; type: cell-based, mouse; conditions: Example 12, FIG. 14
# Method: For the adhesion assay, in a 96 well plate, duplicate wells were covered with either TSP-1 (40 μg/ml), fibronectin (40 μg/ml), or and 1% bovine serum albumin (BSA). The wells were dried out overnight and then blocked with BSA. 100 μl of a suspension containing 2×10^5 cells were plated in the protein covered wells and incubated at 37^□ C. for 20 minutes to 1 hour. The non-adherent cells were removed and the wells were washed with a Hepes buffer. The adherent cells were fixed with 2.5% glutaraldehyde for 10 minutes and stained with 0.2% Giemsa. The stain was washed off and the cells were counted in a field of 1 mm square. Cells adhering to BSA were considered background while cells adhering to fibronectin were the positive control.
# The method of Example 12 was followed except the receptor peptides Val-Cys-His-Ser-Lys-Thr-Arg (SEQ ID NO: 8) and Val-Cys(Acm)-His-Ser-Lys-Thr-Arg (SEQ ID NO: […]) were immobilized on the plates. TSP-1 and fibronectin were also immobilized on plates, as well as negative control peptides (Ala-Ser-Val-Thr-Ala-Arg (SEQ ID NO: 11) and Pro-His-Ser-Arg-Asn (SEQ ID NO: 10)) and bovine serum albumin. […] This provides support for the theory that another protein may be associated with TSP-1 and its receptor, or that the receptor is released and rebound to the membrane of the cell by another protein.
# [3] = molecular target: T2, biotin-angiocidin complex binding to TSP-1 (Homo sapiens, UniProt P55036, INS254GER); experiment: Biotin-avidin receptor binding assay: competition; conditions: for peptide competition of TSP-1 receptor binding: Example 25, peptide 1 mg/ml, FIG. 32; for competition of biotin-angiocidin binding to TSP-1: Example 23, FIGS. 29 and 30
# T2 sequence (P55036 with tags, fused parts or gaps INS254GER): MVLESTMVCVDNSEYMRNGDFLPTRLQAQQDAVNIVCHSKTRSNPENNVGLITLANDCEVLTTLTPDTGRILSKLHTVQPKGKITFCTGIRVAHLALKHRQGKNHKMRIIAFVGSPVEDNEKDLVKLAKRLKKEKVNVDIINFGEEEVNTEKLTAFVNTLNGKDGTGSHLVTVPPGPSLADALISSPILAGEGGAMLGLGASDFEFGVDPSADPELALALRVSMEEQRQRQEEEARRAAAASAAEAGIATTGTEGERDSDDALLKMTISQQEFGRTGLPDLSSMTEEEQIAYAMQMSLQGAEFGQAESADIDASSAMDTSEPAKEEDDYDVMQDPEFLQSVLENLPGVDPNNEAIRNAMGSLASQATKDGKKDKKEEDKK
# Method: In the following experiments, TSP-1 was covalently bound to a substrate, biotinylated angiocidin was added to the plate, and avidin-peroxidase was added to measure how much biotinylated angiocidin was attached to the TSP-1. The avidin-peroxidase was measured using a spectrophotometer at an absorbance of 450 nm.
# Free angiocidin was added to the system to compete with the biotinylated angiocid in. […] Immobilized BSA was used as a negative control.
# The TSP-1 peptide Cys-Ser-Val-Thr-Cys-Gly (SEQ ID NO: 1) was added to the system to compete with the TSP-1 on the plate for binding with the biotinylated angiocidin. The scrambled peptide Val-Cys-Thr-Gly-Ser-Cys (SEQ ID NO: 15) was used as a negative control and had no effect.
# The avidin-biotin system discussed above was used to evaluate the competitive effect of various peptides on the binding of TSP-1 and angiocidin. […] The scrambled peptide Val-Cys-Thr-Gly-Ser-Cys-Gly (SEQ ID NO: 21) and the d-orientation peptide d-Cys-Ser-Val-Thr-Cys-Gly (SEQ ID NO: 22) were used as negative controls.
# [4] = molecular target: T3, receptor-TSP-1 complex (Homo sapiens, UniProt P55036, INS254GER); experiment: Affinity Sensor System: peptide competition of receptor binding to immobilized TSP-1; conditions: 10 fold molar excess of peptide
# T3 construct: Full length cDNA cloned in the PBK-CMV vector was used as a template; 6xHis (pTrcHisA leader) (N); made in house; host or cells: bacteria (pTrcHisA vector)
# T3 sequence (P55036 with tags, fused parts or gaps INS254GER): T2 sequence (P55036 with tags, fused parts or gaps INS254GER)
# Method: as §1, §2, §3
# [5] = system: Bovine aortic endothelial cells (BAEC); experiment: ALAMAR BLUE cell viability assay; type: cell-based; conditions: for cell viability, angiocidin and fragments: Example 27, FIG. 34
# Method: Bovine aortic endothelial cells (BAEC), human umbilical vein endothelial cells (HUVEC), fibroblast cells, A549 human lung carcinoma cells (A549), MDA-MB231 human breast carcinoma cells (MB231), MCF7 human breast carcinoma cells (MCF7) were treated with 37 μg/ml of receptor, or buffer alone, for 24 hours. Viability of the cells was measured using the ALAMAR BLUE™ assay, which measures the capacity of cells to metabolize the ALAMAR BLUE™ dye. The ALAMAR BLUE™ assay (available from Biosource International, Camarillo, Calif.) quantitatively measures the proliferation of cell lines and can establish the relative cytotoxicity of chemical agents. The assay incorporates a fluorometric/colorimetric growth indicator based on detection of metabolic activity. The system incorporates an oxidation-reduction (redox) indicator that both fluoresces and changes color in response to chemical reduction of growth medium resulting from cell growth. This causes the redox indicator to change from its oxidized, non-fluorescent, blue form to its reduced, fluorescent, red form. Data can be collected using either fluorescence-based instrumentation (530-560 nm excitation wavelength and 590 nm emission wavelength) or absorbance-based instrumentation (570 nm and 600 nm).
# BAEC and BSM cells were treated with increasing concentrations of angiocidin (0, 0.625, 1.25, 2.5, 5, 15, 26 and 37 μg/ml) for 24 hours. Cell viability was measured using the ALAMAR BLUE Tm assay. […] In contrast, BSM cells are unaffected.
# The methods of Example 21 were followed, except BAEC cells were used. Additionally, TSP-1 was added at both 20 μg/ml and 5 μg/ml.
# As discussed in Example 19 above, angiocidin was added to BAEC cells. Fragments of angiocidin were added as well. […] GST was used as a negative control. V36-R42, the active site of the antisecretory factor, had no effect, illustrating that angiocidin plays a different role from antisecretory factor.
# Bovine aortic endothelial cells (BAEC) were cultured overnight in serum-free media containing either 37 μg/ml his-tagged angiocidin or his-tagged GST. Both angiocidin and GST were expressed in bacteria transformed with the pTrcHisA expression vector and purified on nickel affinity chromatography under non-denaturing conditions. Viability was measured by the ALAMAR BLUE™ assay.
# This study examined the effect of anti-angiocidin antibody on angiocidin-mediated inhibition of BAEC viability. BAEC were cultured overnight in serum-free media containing either 5 μg/ml angiocidin, 5 μg/ml angiocidin plus 100 μg/ml control IgG, or 5 μg/ml angiocidin plus 100 μg/ml anti-angiocidin IgG. Viability was measured using the ALAMAR BLUE™ assay, described above.
# The endothelial cells (BAEC) were incubated overnight 37 μg/ml of the angiocidin, fragments, and GST. Viability was measured using the ALAMAR BLUE™ assay.
# [6] = molecular target: T1, TSP-1; experiment: Optical binding of angiocidin fragments to TSP-1 derivatized cuvette; conditions: test proteins at 10 nm in PBS buffer
# Method: This study examines the amino terminal (Met1-Lys132) and carboxy terminal (IIe248-Lys380) portions of angiocidin (SEQ ID NOS: 24 and 25, respectively). The binding of undenatured recombinant angiocidin fragments was compared to full length angiocidin. GST was used as a negative control. Binding was evaluated using an optical binding method that uses a cuvette to which TSP-1 is covalently coupled. A laser beam was used to detect whether the test protein (fragments, angiocidin, or GST) is bound to the TSP-1 derivatized cuvette surface. The cuvette was derivatized with 1 μg of TSP-1. The cuvette surfaces were blocked with a 1% BSA solution to prevent nonspecific binding. The test proteins were added at a concentration of […] in a PBS buffer.
# T1 sequence (P07996 19-1170): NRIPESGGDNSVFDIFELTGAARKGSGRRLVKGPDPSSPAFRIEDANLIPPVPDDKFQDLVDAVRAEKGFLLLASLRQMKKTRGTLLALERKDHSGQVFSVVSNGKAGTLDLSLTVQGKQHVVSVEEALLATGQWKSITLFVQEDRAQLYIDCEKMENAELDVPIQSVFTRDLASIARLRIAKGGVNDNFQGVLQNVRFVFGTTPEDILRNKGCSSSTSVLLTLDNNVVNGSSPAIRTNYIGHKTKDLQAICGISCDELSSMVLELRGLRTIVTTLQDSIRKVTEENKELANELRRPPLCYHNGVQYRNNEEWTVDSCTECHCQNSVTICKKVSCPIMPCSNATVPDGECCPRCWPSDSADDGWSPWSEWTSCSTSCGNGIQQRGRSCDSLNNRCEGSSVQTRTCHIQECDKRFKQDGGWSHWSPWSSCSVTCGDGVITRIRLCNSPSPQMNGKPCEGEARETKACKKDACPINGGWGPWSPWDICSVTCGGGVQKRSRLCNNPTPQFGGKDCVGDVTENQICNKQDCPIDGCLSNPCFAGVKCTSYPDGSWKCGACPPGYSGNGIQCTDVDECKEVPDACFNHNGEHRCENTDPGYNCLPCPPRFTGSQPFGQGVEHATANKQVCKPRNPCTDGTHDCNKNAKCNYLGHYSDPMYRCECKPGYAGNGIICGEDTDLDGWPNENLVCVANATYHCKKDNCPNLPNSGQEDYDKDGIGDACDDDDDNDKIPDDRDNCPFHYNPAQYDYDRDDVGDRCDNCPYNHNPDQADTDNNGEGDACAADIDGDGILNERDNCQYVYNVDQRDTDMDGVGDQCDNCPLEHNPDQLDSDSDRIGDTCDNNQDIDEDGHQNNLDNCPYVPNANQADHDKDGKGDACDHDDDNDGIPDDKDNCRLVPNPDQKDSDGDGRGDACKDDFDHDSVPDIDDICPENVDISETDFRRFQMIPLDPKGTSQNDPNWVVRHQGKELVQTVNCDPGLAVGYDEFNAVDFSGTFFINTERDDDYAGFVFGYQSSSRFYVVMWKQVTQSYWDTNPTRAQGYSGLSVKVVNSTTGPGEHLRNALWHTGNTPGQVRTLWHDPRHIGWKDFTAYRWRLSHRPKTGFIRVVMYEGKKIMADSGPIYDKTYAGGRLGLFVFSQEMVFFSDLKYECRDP
substance,measurement,setting,value
Val-Cys(Acm)-His-Ser-Lys-Thr-Arg (VC(Acm)HSKTR),direct binding to immobilized TSP-1,[1],bind directly to the immobilized TSP-1
same,cell adhesion to immobilized peptide,[2],"cause the cells to adhere to the plates, with similar affinity to the positive controls fibronectin and TSP-1"
KVWVLPI,peptide competition of TSP-1 receptor binding,[3],inhibited the binding
"VCTGSC (cysteine pairing not given here) [Val-Cys-Thr-Gly-Ser-Cys (SEQ ID NO: 15), scrambled peptide, negative control]",competition of biotin-angiocidin binding to TSP-1,[3],had no effect
"Pro-His-Ser-Arg-Asn (PHSRN) [Pro-His-Ser-Arg-Asn (SEQ ID NO: 10), negative control peptide, reference compound]",direct binding to immobilized TSP-1,[1],did not
"CSVTCG (cysteine pairing not given here) [Cys-Ser-Val-Thr-Cys-Gly (SEQ ID NO: 1), TSP-1 peptide]",competition of biotin-angiocidin binding to TSP-1,[3],effectively competed with TSP-1 for the biotin-angiocidin complex
same,peptide competition of TSP-1 receptor binding,[3],effectively inhibited binding
Val-Cys(Acm)-Thr-Gly-Ser-Cys(Acm) (VC(Acm)TGSC(Acm)) [scrambled peptide],"extent of receptor binding, % of buffer control",[4],88%
"d-Gly-Cys(Acm)-Thr-Val-Ser-Cys(Acm) (GCTVSC; not fully specified (residues 2, 3, 4, 5, 6); printed as d-Gly-Cys(Acm)-Thr-Val-Ser-Cys(Acm); cysteine pairing not given here; also: d- prefix stated for the peptide (mirror image, D-orientation)) [mirror image acetylated peptide]",peptide competition of TSP-1 receptor binding,[3],inhibited binding
"V36-R42: the active site of the antisecretory factor (VCHSKTR; UniProt P55036 36-42, looked up, fragment) [reference compound]","cell viability, angiocidin and fragments",[5],had no effect
carboxy terminal fragment: carboxy terminal (IIe248-Lys380) portion of angiocidin (SEQ ID NO: 25),anti-endothelial activity compared to angiocidin,"[5]; 37 μg/ml, overnight",had activity levels similar to the negative control
same,"cell viability, angiocidin and fragments",[5],did not affect cell viability
same,binding to TSP-1 derivatized cuvette,[6],show no binding activities

# — patent publication US20030180295A1, “Angiocidin: a Cys-Ser-Val-Thr-Cys-Gly specific tumor cell adhesion receptor” (Philadelphia Health and Education Corporation, priority 1999, published 2003)
